Experimental data reported in a protein production outcome set (Wang et al. 2014).

Test: label from the status in PepcDB records

| Sequence | protein production |
| --- | --- |
| MSLTAIHRPTWVSVDLDAAAHNLQEIREWTKAKKVYAVLKADGYGLGAIPLAKAFQETASADALIVSNLDEALELRQADLTLPIWVLGAWDYSDLKLFIDHDIVITIPSLAWLQNLPDFEGTLKVSLAIDTGMTRIGFDKADEISAAKKIIDKNPQLDLFSVYTHFATADEAGEKSKAYFEEQLRRWQELTINQGFDPSLFSMANSATCIWHHDDPRISFAAIRPGQLISGVNVSNGELKMPPNLHLERIFSVCSEIADVRFVKKDQSLSYGASERMPEDGYVATLPFGYNDGWLRRMQKSSVIINGKRMPIIGRITMDQTMVKLDRKYPIGTRVTLIGKDGGEQITVEEVANYSHTIVDEIQTTLAPRIKRIYTGDLAEVIGANYGEGHHHHHH | not failed |
| MISRRTFALAAVASVLLGGTFVGAKAGLSYLPPLLFVALRFDIAAVVLLGYVVVTRSRDELLPRTRGDVLGILSTGLFALGLANALIFVGQQSATSAVAAIIFSLNPILTPVFAAILLSDERLSARGGLGMVIGLLGVGLVVSPDPAMLLSGGIGKLILFAGAASAALGSVLIRWSGGGLSSTVRTAWALPVAAALCHALSIGMGESAATAVWSPTAIAALLYVGIFAGAIAYIAYFGLLDVTGAIQANLIFYVVPVVSTLGGWALLGEAITPTAVAGFLTIFTGFVVLGSESVDIRALLPATTDEGDTVSESLGIADEQRGFESD | failed |
| MAVDWERRIDFDRLRTQRLTRALDALERSELGALLLFDMNNIRYTTATHIGNWARDKLFRMALLIRGQAPILWDIGSAARLHQMQAPWLPQESWRAGLSTWRGAIDDEVGVQTGNAKKVADLLREHGLANDPVGVDVVELPMLKALEAEGLTIVDGQGLMLDVRSIKTVDEIALLDHAAACVDAAYEELYKFLRVGVKENETVALVNKVLYELGSEEVEAVNAISGERCSPHPHVFSDRMIRPMDTAYFDIVHSYMGYRTCYYRTLNVAGATRAQRDAYKRAREYIDLAISEVKPGVLTSDIVKHFPAAQEFGFASEEEAFGLQYCHGVGLSVWEKPLMSRYHSFDHPVEIKEGMVFALETYWPTADGSSAARIEEEVEVTATGARVITRFPADELLVAGTRYWNGFDFPEIKAPIGRGVASGVAATNGAGAS | failed |
| MDLRIKNKAKKIKAVFFDIDDTLRIKDTGYMPDSIKKVFESLQEKDILTGIASGRAPYGVVPEIRQLNPDFFVTINGSYVINHKGEELSNDPIPKDIIEKYVVWCQEIGIEYGFAGKDKAVVSKRTELVDKALVPVYGFCPVEPDFYKNHEVYHMWTFEDVGDSLQLSDELKEDVRLVRWHENSSDVIKNGISKASGLAHVLKKVHLKPENVLFFGDGPNDMEIFDYVGLKVAMGNGHGDLKEKADFITKNVEEDGILYALEELGLVEKELQFPQLDVTNDDAPMALIKTNYGDLKVKLFPKQAPKTVANFVALAKDGYYDGVIFHRVIKDFMIQGGDPTGTGMGGESIYGERFEDEFSEELYNLRGALSMANAGPNTNGSQFFIVQNQNLPYSAKELERGGWPKEIAAAYAENGGTPHLDRRHSVFGQLVDQASYEALDNIANVDTGVADKPIDDIVIESIEVIDDENRG | failed |
| MTSKRKRWTAQAAKLPSPMGGLALAIASLGWTWESVMPSLNGWGQLTGAMIASALLLMLTGKFLLHPTVLKNELSHPVIGSVIPTFAMALMVVSNLLGHYFPHAGLALWLGAIAIHVVFLGAFIYYRAIDFKLEHMVPSWFVPPIGIIVAAVSFPSNGEPWLVNTILAFGMLAYLIMLPLMLYRLIFCQAIPDAAKPTIAILAAPASLSLAGYLTVCEQPSIAVVAILVSIAILMTSVIYLAFFHLLKLPFSPGYAAFTFPMVIGATALFKTAHWLEQFSQMAELTEWVRLLADFELGVATIVVAYVALRYLTHYVPNPVENIGSTTSVQLK | failed |
| MYSGAYSFVQISTAAYRISITRLEKTMESLQQQVAQLLEQQPTLLPAAMAEQLNVTEFDIVHALPEEMVAVVDGSHAQTILESLPEWGPVTTIMTIAGSIFEVKAPFPKGKVARGYYNLMGRDGELHGHLKLENISHVALVSKPFMGRESHYFGFFTAQGENAFKIYLGRDEKRELIPEQVARFKAMQQQHKQLEHHHHHH | not failed |
| MNILLAFKAEPDAGMLAEKEWQAAQGNSGPDVSLLRSLLGADEQAAAALLLAQRKNGTSMSLTALSMGDERALHWLRYLMALGFEDAVLLETAADLRFAPEFVARHIAEWQYQNPLELIITGCQSSEGQNGQTPFLLAEMLGWPCFTQVERFTLDAPFITLEQRTENGLRCCRVRLPAVIAVRQCGEVALPVPGMRQRMAAGKAEIIRKTVAAEMPAMQCLQLARAEQRRGATLIDGQTVAEKAQKLWQYYLCQRMQ | failed |
| MITIDALGQVCPIPVIRAKKALAELGEAGGVVTVLVDNDISRQNLQKMAEGMGYQAEYLEKDNGVIEVTIVAGEGCAVETSGTAADSGLVVAIGRNTMGEGSEELGRILLKGFIYSLRELTPPPARLLFFNSGAHLTSKDSNSIEDLKAMAAQGTIIQTCGTCLNYYGITEQLAVGQVANMYDIVTAMTEAKRLINI | failed |
| MSTTGDSAPQISGTAESAKECADWQALLERIPYAQHLGLEVQRGDVGVLVHLPCREALIGNFMLPALHGGVLGALIELTARVAAQSQDAETRCPRILDSHINYLRSAKARSTFARADIIRQGRRTSLVQVTCWQGDDKKPIATGQVQLLLPTMAAQQEDRHGH | failed |
| MDLGKPMKSVLVVALLVIFQVCLCQDEVTDDYIGDNTTVDYTLFESLCSKKDVRNFKAWFLPIMYSIICFVGLLGNGLVVLTYIYFKRLKTMTDTYLLNLAVADILFLLTLPFWAYSAAKSWVFGVHFCKLIFAIYKMSFFSGMLLLLCISIDRYVAIVQAVSAHRHRARVLLISKLSCVGIWILATVLSIPELLYSDLQRSSSEQAMRCSLITEHVEAFITIQVAQMVIGFLVPLLAMSFCYLVIIRTLLQARNFERNKAIKVIIAVVVVFIVFQLPYNGVVLAQTVANFNITSSTCELSKQLNIAYDVTYSLACVRCCVNPFLYAFIGVKFRNDLFKLFKDLGCLSQEQLRQWSSCRHIRRSSMSVEAETTTTFSP | failed |
| MTEPEGYRRFLQLVAHEFFHLWNVKRIRPKALEQFDYEAENYTPSLWFSEGATSYYDLLLPLRAGLYGVDSFLEALGKDLSRYLTTPGRKVQPLAESSFDAWVKLYRRDAYSDNQQMSYYLKGQLVCWLLDLEIRNHQPDLEHHHHHH | failed |
| MALVYLVQSDTTIGLLSKDSEKLNALKGRPKNQSVLIESADFSTLKSLVRAPNAFKNLIRRSAKTTFIYPNSKAVRVIRGRHGDFLNRFKTLYSTSANLTQCAYDKEIASNLADVIVSDERGLFESSSSKIFRLYKDKKVRIR | failed |
| MRTVTGAILAMNLEVKDFVHRDVEEADRRLREIGARKILLQLPDGLKPYAFDYFTYLSQRYDVILSSSPVYGACDIGPSYLYDRVDAIVQVGHSIMRNVKYPRPVIFIEHYRTVDVEDINTEALKNYRRIGLIYSIQYRPVADRVKRILESKGFEVIIGRSDRRMTYDGQVLGCNFSSVHSVEAEVEAFVIVSTGSFHALGSQISTERPVFLLDLNEMSLRSMEKEADTFIRKRYAQIYRAMDAKRICFLVDTRIGQRREKLARMLMDRARDLGKEAVLAYTDNISDQDIQNMGCDLAVYTGCPRVPIDDQDRFTVPVLTPAEFSMAFFKSSKRYVLDEIVSVDEFTDQLEHHHHHH | failed |
| MEGPLNLAHQQSRRADRLLAAGKYEEAISCHRKATTYLSEAMKLTESEQAHLSLELQRDSHMKQLLLIQERWKRAKREERLKAH | not failed |
| MSLIVITGASSGLGAELAKLYDAEGKATYLTGRSESKLSTVTNCLSNNVGYRARDLASHQEVEQLFEQLDSIPSTVVHSAGSGYFGLLQEQDPEQIQTLIENNLSSAINVLRELVKRYKDQPVNVVMIMSTAAQQPKAQESTYCAVKWAVKGLIESVRLELKGKPMKIIAVYPGGMATEFWETSGKSLDTSSFMSAEDAALMIHGALANIGNGYVSDITVNREGHHHHHH | not failed |
| MGNGLMSKKKKKKNNKYKKKRPNVSRNCDWSKFCSDVLRKIFETLKSPIDSHRAFARISIQFGKHARTSLHVHGDSYTKVILPPSGNCLLMVDRRLKFYILNLLTRTTINLPSMSLIRGGQVFFKPQNEWSNDSGCFFGPSRNGNVSYDFDSVEWKNSVAVLWINETTGDYVVAWTFIQHYLFFYKSGYWSWCNLNHNGKSLVVFDMACENNKLYLYTANHHIRIFDFSGAYPMEKKTENPYWKYLFNAVEEPWEYVWKRKIAIQKSSGEVLIILSLKQVFYEAERLLFYIFKMNLESFKWERVYSLGDEMLVFGQGVTIPTALKDLGDGIKSDSIYFVDKDVWPDHQDHDRRVSNCGVFNIATSKIKWPTKKYRSVNETQWFVLGVAY | failed |
| MSKKKILIFISVILIIFGGVYLKMKYDEKAKQKEIYYKEQQERITLYLKYNTKKPNTIKSVHFTSLEQGPMGDAIIEGYINNNKEDEFVAFASPENNYQFGGGLTADVKIFKLLKPANESRSPNEIKKDLDKKKERLEHHHHHH | not failed |
| MGHHHHHHSHMADVEDGEETCALASHSGSSGSKSGGDKMFSLKKWNAVAMWSWDVECDTCAICRVQVMDACLRCQAENKQEDCVVVWGECNHSFHNCCMSLWVKQNNRCPLCQQDWVVQRIGK | failed |
| SGNTTSERVSGERHGAKAARAEGGGHGPGKEHKIMVGSTDDPSVFSLPDSKLPGDKEFVPWQQDLDDSVKPTQQARPTVIRWSEGGKEVFISGSFNNWSTKIPLIKSHNDFVAILDLPEGEHQYKFFVDGQWVHDPSEPVVTSQLGTINNLIHVKKSDFEVFDALKLDSMESSETSCRV | failed |
| MVKDSEFLTLVFQSILDEIDVGLHVVDEHGNTIVYNNKMMQIEDMEKHDVLNKNLMDVFMFSKQQDSTLVQALQEGKTIKNVKQSYFNNKGQEITTINHTYPIVQDGKIRGAVEIAKDVTKLERLIRENMNKKGSTTYTFDSILGTSPAIQDVIENAKRATRTSSSVLLAGETGTGKELFAQSIHNGSDRSGGPFISQNCAALPDSLVESILFGTKKGAFTGAVDQPGLFEQAHGGTLLLDEINSLNLSLQAKLLRALQERKIRRIGSTKDTPIDVRIIATMNEDPIDAIAGERMRKDLYYRLSVVTLIIPPLRERKEDILLLASEFIQKNNHLFQMNVEHISDDVKQFFLSYDWPGNIRELEHMIEGAMNFMTDEQTITASHLPYQYRMKIKPADIPEPETPRHQPAADLKEKMESFEKYVIENVLRKHGHNISKAAQELGISRQSLQYRLKKFSHSSNE | failed |
| MKQVNVDVAVIGGGTAGLGSYRAAKAHTDSVVMIEGGPYGTTCARVGCMPSKLLIAAAESVHQIEKAPKFGIHPQGEIVINGREVMERVKFERDRFVGFVLEGVDEIPAEDKISGYAKFLDDNTLQVDDHTIINAKRIVIATGSRPAYPAVWNELGDRLIINDDVFNWDDLPKSVAVFGPGVIGLELGQALHRLGVETKLFGLGGQVGPVTDPEVMAYANKAFNEEFYLDADVKVESMKRITTESGEERVEIQFINKQGELETNIVEYVLAATGRRPNTDKLGLENTSIELDERGVPTADFYTLQTSLPTVFIAGDASNQLPLLHEAADQARIAGDNAGRFPEIRAGLRRSKISAVFSDPQIAMVGETYKEITTRLGTCGCFATGEVSFENQGRSRVMLRNKGILHVYGEQGTGRFLGAEMMGPNAEHLAHLLAWAHQNKMTVSEMLDMPFYHPVIEEGVRTALRDLNAKLHLGPEMIKHCMDCGPGC | failed |
| MVDMDWKRKMVSSDLPNSPKLSSKLHVTIPSPFKIVPVSSPISCSAPALCSAYELYLRLPELRKLWSSRDFPQWTSEPILKPALQALEISFRLVFAVCSDTRPYINHREWNRRLDSLITKQIQLVAAICEDEEEEGISAEAPVGGGRSSLSLLPQLATWRRSEALGKKILYTIDNEMSRCKYTLGLGEQNIAGKPNLRYDAICRPNEIYSLKDNPYADHIDNHENQTLYIIHQILESWIYASGNLLNRIVSSIEEEKFGKASNDVYLLEKIWKILAEIEDLHMLMDPEDFLKLKKQLQIKSTGKNDAFCFRSKGLVEMMKMSKDLRQKVPAVLAVEVDPTGGPRLQEAAMKLYARKTECDKIHLLQGMQAVEAAAKSFFFGYRQLVAAMMGSAEMNATASQESCDSLSQIFMEPTYFPSLDAAKTFLGEFWSHLG | failed |
